From article PMC8219737, “Direct activation of the proton channel by albumin leads to human sperm capacitation and sustained release of inflammatory mediators by neutrophils” (Nature Communications, 2021)

Molecular target: the molecule itself
Test: smTIRF single-molecule photobleaching (subunit counting); hHv1-G199L-TFP particles at the surface of live HEK293T cells; bleaching steps of TFP counted

B1: hHv1-G199L-TFP (natural protein, human, UniProt Q96D96-1 1-273, looked up)
chain: MATWDEKAVTRRAKVAPAERMSKFLRHFTVVGDDYHAWNINYKKWENEEEEEEEEQPPPTPVSGEEGRAAAPDVAPAPGPAPRAPLDFRGMLRKLFSSHRFQVIIICLVVLDALLVLAELILDLKIIQPDKNNYAAMVFHYMSITILVFFMMEIIFKLFVFRLEFFHHKFEILDAVVVVVSFILDIVLLFQEHQFEALLLLILLRLWRVARIINGIIISVKTRSERQLLRLKQMNVQLAAKIQHLEFSCSEKEQEIERLNKLLRQHGLLGEVN
notes: also used for the patch-clamp (functional) rows of hHv1-G199L; source: HEK293T, transfected, on live cells; not shown: teal fluorescent protein (TFP, via a 13-residue linker), C-terminal, kept
Q: B1 was tested. Which “stoichiometry N” value did it give?
A: 2 subunits per particle
